Experimental data: publication PMC6424575 (Biochemistry, 2018)

What was measured:
[1] = biological target: DEBS3 (bimodular protein of the 6-deoxyerythronolide B synthase) (Saccharopolyspora erythraea, UniProt Q03133); assay: SEC-SAXS
DEBS module 3+TE = DEBS module 3+TE (Saccharopolyspora erythraea); assay: ELISA

Sequence of DEBS3 (bimodular protein of the 6-deoxyerythronolide B synthase) (Q03133 whole entry): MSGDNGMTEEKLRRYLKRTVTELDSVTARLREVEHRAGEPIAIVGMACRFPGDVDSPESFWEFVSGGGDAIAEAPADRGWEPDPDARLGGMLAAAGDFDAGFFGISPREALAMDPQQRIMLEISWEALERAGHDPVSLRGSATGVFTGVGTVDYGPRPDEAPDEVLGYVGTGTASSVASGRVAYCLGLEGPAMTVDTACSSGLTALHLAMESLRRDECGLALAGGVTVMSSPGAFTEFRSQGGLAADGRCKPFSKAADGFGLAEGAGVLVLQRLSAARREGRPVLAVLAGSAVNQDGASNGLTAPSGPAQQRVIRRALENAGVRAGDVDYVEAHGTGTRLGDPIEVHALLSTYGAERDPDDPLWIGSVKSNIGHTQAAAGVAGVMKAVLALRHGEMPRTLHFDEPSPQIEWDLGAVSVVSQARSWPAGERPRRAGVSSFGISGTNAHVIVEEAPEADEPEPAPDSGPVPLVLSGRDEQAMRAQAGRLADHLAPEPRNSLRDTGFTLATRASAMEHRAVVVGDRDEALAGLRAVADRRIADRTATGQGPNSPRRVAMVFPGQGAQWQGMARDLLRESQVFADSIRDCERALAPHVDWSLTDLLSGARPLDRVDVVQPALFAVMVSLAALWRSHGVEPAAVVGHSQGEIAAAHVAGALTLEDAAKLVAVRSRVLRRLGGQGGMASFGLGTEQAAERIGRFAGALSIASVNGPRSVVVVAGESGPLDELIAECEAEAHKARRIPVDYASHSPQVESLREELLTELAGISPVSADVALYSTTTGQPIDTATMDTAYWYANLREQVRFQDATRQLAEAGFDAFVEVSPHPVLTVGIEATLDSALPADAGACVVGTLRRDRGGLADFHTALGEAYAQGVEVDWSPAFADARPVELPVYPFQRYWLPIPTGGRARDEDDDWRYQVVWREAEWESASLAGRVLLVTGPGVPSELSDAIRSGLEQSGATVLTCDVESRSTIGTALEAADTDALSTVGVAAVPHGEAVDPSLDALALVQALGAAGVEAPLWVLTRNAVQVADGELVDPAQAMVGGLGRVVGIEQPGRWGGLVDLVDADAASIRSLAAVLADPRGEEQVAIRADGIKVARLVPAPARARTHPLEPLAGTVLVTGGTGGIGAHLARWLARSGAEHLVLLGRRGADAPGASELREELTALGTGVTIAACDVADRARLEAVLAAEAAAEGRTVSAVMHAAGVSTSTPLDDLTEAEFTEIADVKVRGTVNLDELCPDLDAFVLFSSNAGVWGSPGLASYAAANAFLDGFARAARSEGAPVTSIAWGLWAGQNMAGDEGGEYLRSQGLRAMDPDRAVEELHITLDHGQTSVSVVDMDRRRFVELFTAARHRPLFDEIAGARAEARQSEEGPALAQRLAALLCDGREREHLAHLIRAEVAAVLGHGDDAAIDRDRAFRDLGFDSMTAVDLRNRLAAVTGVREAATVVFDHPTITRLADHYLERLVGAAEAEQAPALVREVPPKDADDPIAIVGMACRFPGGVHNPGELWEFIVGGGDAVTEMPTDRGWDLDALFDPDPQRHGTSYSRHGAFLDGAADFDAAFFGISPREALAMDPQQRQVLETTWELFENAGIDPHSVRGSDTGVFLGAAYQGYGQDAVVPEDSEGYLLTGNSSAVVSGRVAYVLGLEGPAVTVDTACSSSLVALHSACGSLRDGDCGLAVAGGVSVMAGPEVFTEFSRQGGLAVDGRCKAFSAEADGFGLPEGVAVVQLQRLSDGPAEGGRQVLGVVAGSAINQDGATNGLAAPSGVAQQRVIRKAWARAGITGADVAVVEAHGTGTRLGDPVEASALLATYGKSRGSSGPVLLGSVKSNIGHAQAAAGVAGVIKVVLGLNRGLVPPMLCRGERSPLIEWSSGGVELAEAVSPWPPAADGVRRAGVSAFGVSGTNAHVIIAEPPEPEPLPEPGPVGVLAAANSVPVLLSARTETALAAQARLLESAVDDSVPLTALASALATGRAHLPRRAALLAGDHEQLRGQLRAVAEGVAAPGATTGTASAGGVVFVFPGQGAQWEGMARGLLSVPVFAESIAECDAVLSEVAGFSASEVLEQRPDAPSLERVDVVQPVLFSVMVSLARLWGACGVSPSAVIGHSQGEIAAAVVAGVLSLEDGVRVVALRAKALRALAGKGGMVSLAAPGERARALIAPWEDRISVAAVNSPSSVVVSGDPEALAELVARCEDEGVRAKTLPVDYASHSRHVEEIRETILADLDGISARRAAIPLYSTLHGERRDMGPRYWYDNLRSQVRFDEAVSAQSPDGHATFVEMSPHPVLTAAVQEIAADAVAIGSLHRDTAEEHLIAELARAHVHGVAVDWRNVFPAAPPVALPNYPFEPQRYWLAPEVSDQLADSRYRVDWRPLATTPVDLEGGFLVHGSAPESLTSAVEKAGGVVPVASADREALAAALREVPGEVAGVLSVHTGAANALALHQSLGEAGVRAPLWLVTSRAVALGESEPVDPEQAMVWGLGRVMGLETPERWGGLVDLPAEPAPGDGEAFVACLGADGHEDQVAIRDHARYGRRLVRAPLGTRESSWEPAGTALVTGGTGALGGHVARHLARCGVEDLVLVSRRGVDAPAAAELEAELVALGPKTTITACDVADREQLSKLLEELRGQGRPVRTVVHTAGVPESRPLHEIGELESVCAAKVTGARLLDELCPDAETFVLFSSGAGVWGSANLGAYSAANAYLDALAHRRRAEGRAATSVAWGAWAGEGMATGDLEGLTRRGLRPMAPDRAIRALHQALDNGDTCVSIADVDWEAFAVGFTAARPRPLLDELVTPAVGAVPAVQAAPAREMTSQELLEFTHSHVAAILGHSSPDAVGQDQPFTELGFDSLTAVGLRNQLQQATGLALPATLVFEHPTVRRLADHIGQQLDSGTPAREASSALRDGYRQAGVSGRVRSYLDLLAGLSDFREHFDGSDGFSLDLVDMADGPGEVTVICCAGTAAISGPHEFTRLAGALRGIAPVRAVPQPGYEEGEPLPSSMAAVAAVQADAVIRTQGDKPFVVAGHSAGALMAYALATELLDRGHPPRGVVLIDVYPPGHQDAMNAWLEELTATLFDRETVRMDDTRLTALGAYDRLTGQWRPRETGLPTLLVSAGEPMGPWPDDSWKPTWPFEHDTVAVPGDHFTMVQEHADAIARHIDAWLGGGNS

B1: Fab 3A6 (Fab, V domains shown)
VH: QVQLQQWGAGLLKPSETLSLTCAVYGGSFSGYYWSWIRQPPGKGLEWIGEINHSGSTNYNPSLKSRVTISVDTSKNQFSLKLSSVTAADTAVYYCARGLGYSGSYYAPNWGQGTLVTVSS
VL: not shown
binding result [1]: binds
Kd (DEBS module 3+TE): 42 ± 12 nM
